Experimental data published in article PMC12833063.

Biological target: anti-PD-L1×avβ3 dual function antibody (B1451)
Assay: SPR; Biacore T200; B1451 captured at about 35 RU on anti-human IgG (Fc) immobilised on a CM5 chip; human αvβ3 injected, 2-fold dilutions 12.5-400 nM, association 120 s; regeneration 10 mM glycine-HCl pH 1.5; 1:1 binding model

Chain of human αvβ3 (P06756 31-1048): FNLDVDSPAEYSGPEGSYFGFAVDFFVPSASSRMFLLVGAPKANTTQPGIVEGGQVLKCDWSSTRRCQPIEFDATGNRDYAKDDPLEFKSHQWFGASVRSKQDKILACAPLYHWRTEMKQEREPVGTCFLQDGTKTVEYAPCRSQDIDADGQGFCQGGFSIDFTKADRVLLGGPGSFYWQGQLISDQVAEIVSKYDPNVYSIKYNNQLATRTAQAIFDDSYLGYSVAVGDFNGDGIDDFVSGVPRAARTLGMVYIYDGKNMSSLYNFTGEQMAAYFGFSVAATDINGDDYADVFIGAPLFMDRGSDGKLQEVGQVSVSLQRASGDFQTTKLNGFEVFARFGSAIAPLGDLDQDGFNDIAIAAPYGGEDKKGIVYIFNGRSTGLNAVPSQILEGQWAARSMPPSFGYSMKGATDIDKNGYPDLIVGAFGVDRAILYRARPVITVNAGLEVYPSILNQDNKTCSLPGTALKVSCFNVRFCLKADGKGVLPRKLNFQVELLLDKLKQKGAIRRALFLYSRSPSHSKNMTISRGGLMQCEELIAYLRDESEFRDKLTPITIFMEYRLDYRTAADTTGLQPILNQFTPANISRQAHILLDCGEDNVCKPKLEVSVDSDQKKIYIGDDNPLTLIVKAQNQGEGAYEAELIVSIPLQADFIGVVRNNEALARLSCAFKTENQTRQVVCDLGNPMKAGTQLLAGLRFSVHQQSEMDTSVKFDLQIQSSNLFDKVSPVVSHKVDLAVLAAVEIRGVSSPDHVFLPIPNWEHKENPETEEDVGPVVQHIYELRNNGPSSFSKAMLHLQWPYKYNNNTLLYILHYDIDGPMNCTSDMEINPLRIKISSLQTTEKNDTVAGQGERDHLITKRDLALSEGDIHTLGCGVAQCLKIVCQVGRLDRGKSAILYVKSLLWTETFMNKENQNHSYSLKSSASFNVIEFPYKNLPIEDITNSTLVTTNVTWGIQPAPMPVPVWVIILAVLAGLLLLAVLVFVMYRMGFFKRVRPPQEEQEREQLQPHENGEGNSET
Chain of human αvβ3 (P05106 27-718): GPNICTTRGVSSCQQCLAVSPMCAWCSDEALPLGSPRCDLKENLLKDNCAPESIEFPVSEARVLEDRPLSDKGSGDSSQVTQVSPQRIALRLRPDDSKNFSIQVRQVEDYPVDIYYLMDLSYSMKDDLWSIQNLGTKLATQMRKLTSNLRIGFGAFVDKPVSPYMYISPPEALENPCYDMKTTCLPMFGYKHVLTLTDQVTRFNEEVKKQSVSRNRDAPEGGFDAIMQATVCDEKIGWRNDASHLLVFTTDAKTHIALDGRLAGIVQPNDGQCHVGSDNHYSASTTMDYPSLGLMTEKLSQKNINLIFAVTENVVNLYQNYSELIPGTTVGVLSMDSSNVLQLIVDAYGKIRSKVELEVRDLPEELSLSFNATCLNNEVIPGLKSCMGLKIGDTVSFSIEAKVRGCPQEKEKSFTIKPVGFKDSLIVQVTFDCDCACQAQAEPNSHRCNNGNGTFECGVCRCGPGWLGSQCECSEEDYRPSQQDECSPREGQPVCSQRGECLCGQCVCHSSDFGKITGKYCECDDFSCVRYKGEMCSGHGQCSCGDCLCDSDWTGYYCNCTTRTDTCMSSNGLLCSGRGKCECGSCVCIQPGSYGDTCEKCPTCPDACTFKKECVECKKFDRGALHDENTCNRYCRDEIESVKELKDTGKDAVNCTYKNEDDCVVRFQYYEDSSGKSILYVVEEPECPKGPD

## human αvβ3 (from UniProt P06756 31-1048; P05106 27-718) (complex)
  Kd: 15.5 µM
